{"source": "paper PMC3648548", "target": "GLIC NQN mutant (D91N, E177Q, D178N), pentameric ligand-gated ion channel from Gloeobacter violaceus (Gloeobacter violaceus)", "assay": "crystal structure; GLIC-NQN mutant in 0.01% (w/v) n-tetradecyl-β-D-maltoside, ~10 mg/ml; crystallization conditions as for GLIC and GLIC-ketamine; molecular replacement with 4F8H; five subunits in the asymmetric unit"}
{"substance": "GLIC NQN mutant (D91N, E177Q, D178N), pentameric ligand-gated ion channel from Gloeobacter violaceus (natural protein)", "values": [{"measurement": "stoichiometry N", "value": 5}]}
